Results on six molecules are retold here after PMC5695660 (Nature chemical biology, 2013).

For orientation: Kd means the equilibrium constant for the complex coming apart. Low values mean a tighter complex, high ones a looser complex.

B4: Cdc37 (human, full length), bacterially expressed (natural protein, UniProt Q16543 1-378, looked up)
chain: MVDYSVWDHIEVSDDEDETHPNIDTASLFRWRHQARVERMEQFQKEKEELDRGCRECKRKVAECQRKLKELEVAEGGKAELERLQAEAQQLRKEERSWEQKLEEMRKKEKSMPWNVDTLSKDGFSKSMVNTKPEKTEEDSEEVREQKHKTFVEKYEKQIKHFGMLRRWDDSQKYLSDNVHLVCEETANYLVIWCIDLEVEEKCALMEQVAHQTIVMQFILELAKSLKVDPRACFRQFFTKIKTADRQYMEGFNDELEAFKERVRGRAKLRIEKAMKEYEEEERKKRLGPGGLDPVEVYESLPEELQKCFDVKDVQMLQDAISKMDPTDAKYHMQRCIDSGLWVPNSKASEAKEGEEAGPGDPLLEAVPKTGDEKDVSV

Assay [1] has as its target Cdc37 (human, full length), bacterially expressed (human) (UniProt Q16543). The experiment in a line: ITC. A general note: In ITC the heat of successive injections is recorded.
Assay [2] concerns the target T1, Cak1p (Saccharomyces cerevisiae, UniProt P43568).
T1 sequence (P43568 1-368): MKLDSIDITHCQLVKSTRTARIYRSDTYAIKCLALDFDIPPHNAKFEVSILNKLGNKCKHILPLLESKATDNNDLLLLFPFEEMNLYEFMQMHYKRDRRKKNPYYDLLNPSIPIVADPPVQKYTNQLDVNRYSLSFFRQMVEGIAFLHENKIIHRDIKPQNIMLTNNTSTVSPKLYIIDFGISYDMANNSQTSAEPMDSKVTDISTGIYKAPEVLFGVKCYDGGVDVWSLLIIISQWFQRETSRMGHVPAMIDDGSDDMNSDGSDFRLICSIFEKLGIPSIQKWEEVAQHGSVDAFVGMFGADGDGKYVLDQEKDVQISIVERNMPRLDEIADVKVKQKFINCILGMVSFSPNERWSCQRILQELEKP
The experiment in a line: isothermal titration calorimetry. It is filed as binding.

Assay [3] deals with T2, budding yeast Cdc37p (budding yeast, UniProt P06101 1-506).
T2 sequence (looked up): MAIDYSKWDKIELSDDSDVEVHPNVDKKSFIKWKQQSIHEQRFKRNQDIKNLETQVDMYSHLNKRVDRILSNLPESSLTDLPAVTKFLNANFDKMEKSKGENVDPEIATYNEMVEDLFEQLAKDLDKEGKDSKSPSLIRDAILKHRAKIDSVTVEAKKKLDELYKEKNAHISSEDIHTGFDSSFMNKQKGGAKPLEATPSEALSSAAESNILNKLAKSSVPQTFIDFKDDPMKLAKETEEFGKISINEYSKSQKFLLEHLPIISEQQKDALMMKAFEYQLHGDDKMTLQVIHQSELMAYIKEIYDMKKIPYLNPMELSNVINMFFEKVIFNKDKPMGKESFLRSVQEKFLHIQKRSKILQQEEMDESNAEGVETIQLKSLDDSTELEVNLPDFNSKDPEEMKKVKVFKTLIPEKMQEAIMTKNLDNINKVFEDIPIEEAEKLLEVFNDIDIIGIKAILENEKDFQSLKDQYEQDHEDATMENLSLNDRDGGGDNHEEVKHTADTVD
The experiment in a line: SEC. On the technique in general: Size exclusion chromatography separates by hydrodynamic size, large species first.

In assay [4] the target is B4. Briefly: SEC.
For assay [5], the target named is T3, Hsp90β, bacterially expressed (human, UniProt P08238 1-724). The experiment in a line: SEC.
Assay [6] has as its target T3, Hsp90β, bacterially expressed. Briefly: SEC. The source holds these as a separate data set.

Like-named read-outs stand apart in the source and are kept apart here.

T3 sequence (P08238 whole entry): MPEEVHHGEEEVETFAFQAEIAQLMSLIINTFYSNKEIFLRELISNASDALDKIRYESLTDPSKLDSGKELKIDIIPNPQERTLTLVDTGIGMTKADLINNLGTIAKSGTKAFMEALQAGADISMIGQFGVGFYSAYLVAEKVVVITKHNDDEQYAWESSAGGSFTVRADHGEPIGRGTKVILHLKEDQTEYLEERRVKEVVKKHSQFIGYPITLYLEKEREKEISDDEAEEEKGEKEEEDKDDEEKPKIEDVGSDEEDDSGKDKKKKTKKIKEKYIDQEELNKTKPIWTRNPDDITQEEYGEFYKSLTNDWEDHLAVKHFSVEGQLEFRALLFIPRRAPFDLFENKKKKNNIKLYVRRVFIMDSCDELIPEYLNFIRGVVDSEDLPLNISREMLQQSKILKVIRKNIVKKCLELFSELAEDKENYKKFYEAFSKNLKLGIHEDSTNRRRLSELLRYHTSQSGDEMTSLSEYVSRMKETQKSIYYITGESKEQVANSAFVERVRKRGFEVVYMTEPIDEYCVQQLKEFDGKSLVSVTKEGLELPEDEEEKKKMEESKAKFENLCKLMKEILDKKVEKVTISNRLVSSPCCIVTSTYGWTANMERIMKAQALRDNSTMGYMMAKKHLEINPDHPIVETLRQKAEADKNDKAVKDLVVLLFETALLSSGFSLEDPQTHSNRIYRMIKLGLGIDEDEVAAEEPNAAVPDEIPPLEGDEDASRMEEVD

“solubilised BRaf V600E kinase domain (sBRafV600E), bacterially expressed (from UniProt P15056 457-717) (domain or fragment)” yielded a Kd in assay [1] of 200 nM.
`NC1=N/C(=C2/CCNC(=O)c3[nH]ccc32)C(=O)N1` [debromohymenialdisine] displayed a Kd in assay [2] of approximately 1700 nM.

B1: Cak1p, cyclin-dependent kinase activating kinase from budding yeast (enzyme, UniProt P43568 1-368, looked up)
chain: MKLDSIDITHCQLVKSTRTARIYRSDTYAIKCLALDFDIPPHNAKFEVSILNKLGNKCKHILPLLESKATDNNDLLLLFPFEEMNLYEFMQMHYKRDRRKKNPYYDLLNPSIPIVADPPVQKYTNQLDVNRYSLSFFRQMVEGIAFLHENKIIHRDIKPQNIMLTNNTSTVSPKLYIIDFGISYDMANNSQTSAEPMDSKVTDISTGIYKAPEVLFGVKCYDGGVDVWSLLIIISQWFQRETSRMGHVPAMIDDGSDDMNSDGSDFRLICSIFEKLGIPSIQKWEEVAQHGSVDAFVGMFGADGDGKYVLDQEKDVQISIVERNMPRLDEIADVKVKQKFINCILGMVSFSPNERWSCQRILQELEKP
For B1, the binding result in assay [3] is recorded as “binds”.

B2: BRaf kinase domain (wild-type, native; amino acids 433-726), Sf9 (domain or fragment, human, UniProt P15056 433-726, looked up)
chain: EDRNRMKTLGRRDSSDDWEIPDGQITVGQRIGSGSFGTVYKGKWHGDVAVKMLNVTAPTPQQLQAFKNEVGVLRKTRHVNILLFMGYSTKPQLAIVTQWCEGSSLYHHLHIIETKFEMIKLIDIARQTAQGMDYLHAKSIIHRDLKSNNIFLHEDLTVKIGDFGLATVKSRWSGSHQFEQLSGSILWMAPEVIRMQDKNPYSFQSDVYAFGIVLYELMTGQLPYSNINNRDQIIFMVGRGYLSPDLSKVRSNCPKAMKRLMAECLKKKRDERPLFPQILASIELLARSLPKIHR
B2: the binding result in assay [4] is “binds”.

B3: Cdc37 phosphorylated on Ser13 (natural protein, human, UniProt Q16543 1-378, looked up)
chain: MVDYSVWDHIEVSDDEDETHPNIDTASLFRWRHQARVERMEQFQKEKEELDRGCRECKRKVAECQRKLKELEVAEGGKAELERLQAEAQQLRKEERSWEQKLEEMRKKEKSMPWNVDTLSKDGFSKSMVNTKPEKTEEDSEEVREQKHKTFVEKYEKQIKHFGMLRRWDDSQKYLSDNVHLVCEETANYLVIWCIDLEVEEKCALMEQVAHQTIVMQFILELAKSLKVDPRACFRQFFTKIKTADRQYMEGFNDELEAFKERVRGRAKLRIEKAMKEYEEEERKKRLGPGGLDPVEVYESLPEELQKCFDVKDVQMLQDAISKMDPTDAKYHMQRCIDSGLWVPNSKASEAKEGEEAGPGDPLLEAVPKTGDEKDVSV
modifications: phosphoserine at 13
Regarding B3, the binding result in assay [5] is listed as “binds”.
As for B4, in assay [6], the binding result is on record as “binds”.
